Reference: PMC11574045, “A cofactor-induced repressive type of transcription factor condensation can be induced by synthetic peptides to suppress tumorigenesis” (The EMBO Journal, 2024)

B1: ZFY (protein, UniProt P08048 1-801, looked up)
Zinc finger Y-chromosomal …: MDEDEFELQPQEPNSFFDGIGADATHMDGDQIVVEIQEAVFVSNIVDSDITVHNFVPDDPDSVVIQDVVEDVVIEEDVQCSDILEEADVSENVIIPEQVLDSDVTEEVSLPHCTVPDDVLASDITSTSMSMPEHVLTSESMHVCDIGHVEHMVHDSVVEAEIITDPLTSDIVSEEVLVADCAPEAVIDASGISVDQQDNDKASCEDYLMISLDDAGKIEHDGSTGVTIDAESEMDPCKVDSTCPEVIKVYIFKADPGEDDLGGTVDIVESEPENDHGVELLDQNSSIRVPREKMVYMTVNDSQQEDEDLNVAEIADEVYMEVIVGEEDAAVAAAAAAVHEQQIDEDEMKTFVPIAWAAAYGNNSDGIENRNGTASALLHIDESAGLGRLAKQKPKKKRRPDSRQYQTAIIIGPDGHPLTVYPCMICGKKFKSRGFLKRHMKNHPEHLAKKKYHCTDCDYTTNKKISLHNHLESHKLTSKAEKAIECDECGKHFSHAGALFTHKMVHKEKGANKMHKCKFCEYETAEQGLLNRHLLAVHSKNFPHICVECGKGFRHPSELRKHMRIHTGEKPYQCQYCEYRSADSSNLKTHIKTKHSKEMPFKCDICLLTFSDTKEVQQHTLVHQESKTHQCLHCDHKSSNSSDLKRHVISVHTKDYPHKCEMCEKGFHRPSELKKHVAVHKGKKMHQCRHCDFKIADPFVLSRHILSVHTKDLPFRCKRCRKGFRQQNELKKHMKTHSGRKVYQCEYCEYSTTDASGFKRHVISIHTKDYPHRCEYCKKGFRRPSEKNQHIMRHHKEVGLP
B2: ZGLP1 (protein, UniProt P0C6A0 1-273, looked up)
GATA-type zinc finger protein …: MEAEPIPDSSMPAKLLAPPCLNLERLGGSPSQEKPRTPGCCRISERSLWPACQESVTALCFLQETVERLGQSPAQDTPVLGPCWDPMALGTQGRLLLDRDSKDTQTRISQKGRRLQPPGTPSAPPQRRPRKQLNPCRGTERVDPGFEGVTLKFQIKPDSSLQIIPTYSLPCSSRSQESPADAVGGPAAHPGGTEAHSAGSEALEPRRCASCRTQRTPLWRDAEDGTPLCNACGIRYKKYGTRCSSCWLVPRKNVQPKRLCGRCGVSLDPIQEG
B3: ZIC3 (protein, UniProt O60481 1-467, looked up)
Zinc finger protein ZIC 3: MTMLLDGGPQFPGLGVGSFGAPRHHEMPNREPAGMGLNPFGDSTHAAAAAAAAAAFKLSPAAAHDLSSGQSSAFTPQGSGYANALGHHHHHHHHHHHTSQVPSYGGAASAAFNSTREFLFRQRSSGLSEAASGGGQHGLFAGSASSLHAPAGIPEPPSYLLFPGLHEQGAGHPSPTGHVDNNQVHLGLRGELFGRADPYRPVASPRTDPYAAGAQFPNYSPMNMNMGVNVAAHHGPGAFFRYMRQPIKQELSCKWIDEAQLSRPKKSCDRTFSTMHELVTHVTMEHVGGPEQNNHVCYWEECPREGKSFKAKYKLVNHIRVHTGEKPFPCPFPGCGKIFARSENLKIHKRTHTGEKPFKCEFEGCDRRFANSSDRKKHMHVHTSDKPYICKVCDKSYTHPSSLRKHMKVHESQGSDSSPAASSGYESSTPPAIASANSKDTTKTPSAVQTSTSHNPGLPPNFNEWYV
B4: ZKSCAN3 (protein, UniProt Q9BRR0 1-538, looked up)
Zinc finger protein with KRAB …: MARELSESTALDAQSTEDQMELLVIKVEEEEAGFPSSPDLGSEGSRERFRGFRYPEAAGPREALSRLRELCRQWLQPEMHSKEQILELLVLEQFLTILPGNLQSWVREQHPESGEEVVVLLEYLERQLDEPAPQVSGVDQGQELLCCKMALLTPAPGSQSSQFQLMKALLKHESVGSQPLQDRVLQVPVLAHGGCCREDKVVASRLTPESQGLLKVEDVALTLTPEWTQQDSSQGNLCRDEKQENHGSLVSLGDEKQTKSRDLPPAEELPEKEHGKISCHLREDIAQIPTCAEAGEQEGRLQRKQKNATGGRRHICHECGKSFAQSSGLSKHRRIHTGEKPYECEECGKAFIGSSALVIHQRVHTGEKPYECEECGKAFSHSSDLIKHQRTHTGEKPYECDDCGKTFSQSCSLLEHHRIHTGEKPYQCSMCGKAFRRSSHLLRHQRIHTGDKNVQEPEQGEAWKSRMESQLENVETPMSYKCNECERSFTQNTGLIEHQKIHTGEKPYQCNACGKGFTRISYLVQHQRSHVGKNILSQ
B5: CARF (protein, UniProt Q9NXV6 2-580, looked up)
CDKN2A-interacting protein: AQEVSEYLSQNPRVAAWVEALRCDGETDKHWRHRRDFLLRNAGDLAPAGGAASASTDEAADAESGTRNRQLQQLISFSMAWANHVFLGCRYPQKVMDKILSMAEGIKVTDAPTYTTRDELVAKVKKRGISSSNEGVEEPSKKRVIEGKNSSAVEQDHAKTSAKTERASAQQENSSTCIGSAIKSESGNSARSSGISSQNSSTSDGDRSVSSQSSSSVSSQVTTAGSGKASEAEAPDKHGSASFVSLLKSSVNSHMTQSTDSRQQSGSPKKSALEGSSASASQSSSEIEVPLLGSSGSSEVELPLLSSKPSSETASSGLTSKTSSEASVSSSVAKNSSSSGTSLLTPKSSSSTNTSLLTSKSTSQVAASLLASKSSSQTSGSLVSKSTSLASVSQLASKSSSQTSTSQLPSKSTSQSSESSVKFSCKLTNEDVKQKQPFFNRLYKTVAWKLVAVGGFSPNVNHGELLNAAIEALKATLDVFFVPLKELADLPQNKSSQESIVCELRCKSVYLGTGCGKSKENAKAVASREALKLFLKKKVVVKICKRKYRGSEIEDLVLLDEESRPVNLPPALKHPQELL
B6: ZNF165 (protein, UniProt P49910 1-485, looked up)
Zinc finger protein 165: MATEPKKAAAQNSPEDEGLLIVKIEEEEFIHGQDTCLQRSELLKQELCRQLFRQFCYQDSPGPREALSRLRELCCQWLKPEIHTKEQILELLVLEQFLTILPGDLQAWVHEHYPESGEEAVTILEDLERGTDEAVLQVQAHEHGQEIFQKKVSPPGPALNVKLQPVETKAHFDSSEPQLLWDCDNESENSRSMPKLEIFEKIESQRIISGRISGYISEASGESQDICKSAGRVKRQWEKESGESQRLSSAQDEGFGKILTHKNTVRGEIISHDGCERRLNLNSNEFTHQKSCKHGTCDQSFKWNSDFINHQIIYAGEKNHQYGKSFKSPKLAKHAAVFSGDKTHQCNECGKAFRHSSKLARHQRIHTGERCYECNECGKSFAESSDLTRHRRIHTGERPFGCKECGRAFNLNSHLIRHQRIHTREKPYECSECGKTFRVSSHLIRHFRIHTGEKPYECSECGRAFSQSSNLSQHQRIHMRENLLM
B7: ZNF174 (protein, UniProt Q15697 1-407, looked up)
Zinc finger protein 174: MAAKMEITLSSNTEASSKQERHIIAKLEEKRGPPLQKNCPDPELCRQSFRRFCYQEVSGPQEALSQLRQLCRQWLQPELHTKEQILELLVMEQFLTILPPEIQARVRHRCPMSSKEIVTLVEDFHRASKKPKQWVAVCMQGQKVLLEKTGSQLGEQELPDFQPQTPRRDLRESSPAEPSQAGAYDRLSPHHWEKSPLLQEPTPKLAGTEAPRMRSDNKENPQQEGAKGAKPCAVSAGRSKGNGLQNPEPRGANMSEPRLSRRQVSSPNAQKPFAHYQRHCRVEYISSPLKSHPLRELKKSKGGKRSLSNRLQHLGHQPTRSAKKPYKCDDCGKSFTWNSELKRHKRVHTGERPYTCGECGNCFGRQSTLKLHQRIHTGEKPYQCGQCGKSFRQSSNLHQHHRLHHGD
B8: CARHSP1 (protein, UniProt Q9Y2V2 2-147, looked up)
Calcium-regulated heat-stable …: SSEPPPPPQPPTHQASVGLLDTPRSRERSPSPLRGNVVPSPLPTRRTRTFSATVRASQGPVYKGVCKCFCRSKGHGFITPADGGPDIFLHISDVEGEYVPVEGDEVTYKMCSIPPKNEKLQAVEVVITHLAPGTKHETWSGHVISS
B9: ZNF19 (protein, UniProt P17023 1-458, looked up)
Zinc finger protein 19: MAAMPLKAQYQEMVTFEDVAVHFTKTEWTGLSPAQRALYRSVMLENFGNLTALGYPVPKPALISLLERGDMAWGLEAQDDPPAERTKNVCKDVETNIDSESTLIQGISEERDGMMSHGQLKSVPQRTDFPETRNVEKHQDIPTVKNIQGKVPRIPCARKPFICEECGKSFSYFSYYARHQRIHTGEKPFECSECGKAFNGNSSLIRHQRIHTGERPYQCEECGRAFNDNANLIRHQRIHSGDRPYYCTECGNSFTSSSEFVIHQRIHTGEKPYECNECGKAFVGNSPLLRHQKIHTGEKPYECNECGKSFGRTSHLSQHQRIHTGEKPYSCKVCGQAFNFHTKLTRHQRIHSEEKPFDCVDCGKAFSAQEQLKRHLRIHTQESSYVCDECGKALTSKRNLHQHQRIHTGEKPYECSKYEKAFGTSSQLGHLEHVYSGEKPVLDICRFGLPEFFTPFYW
B10: ZNF213 (protein, UniProt O14771 1-459, looked up)
Zinc finger protein 213: MAAPLEAQDQAPGEGEGLLIVKVEDSSWEQESAQHEDGRDSEACRQRFRQFCYGDVHGPHEAFSQLWELCCRWLRPELRTKEQILELLVLEQFLTVLPGEIQGWVREQHPGSGEEAVALVEDLQKQPVKAWRQDVPSEEAEPEAAGRGSQATGPPPTVGARRRPSVPQEQHSHSAQPPALLKEGRPGETTDTCFVSGVHGPVALGDIPFYFSREEWGTLDPAQRDLFWDIKRENSRNTTLGFGLKGQSEKSLLQEMVPVVPGQTGSDVTVSWSPEEAEAWESENRPRAALGPVVGARRGRPPTRRRQFRDLAAEKPHSCGQCGKRFRWGSDLARHQRTHTGEKPHKCPECDKSFRSSSDLVRHQGVHTGEKPFSCSECGKSFSRSAYLADHQRIHTGEKPFGCSDCGKSFSLRSYLLDHRRVHTGERPFGCGECDKSFKQRAHLIAHQSLHAKMAQPVG
B11: ZNF250 (protein, UniProt P15622 1-560, looked up)
Zinc finger protein 250: MAAARLLPVPAGPQPLSFQAKLTFEDVAVLLSQDEWDRLCPAQRGLYRNVMMETYGNVVSLGLPGSKPDIISQLERGEDPWVLDRKGAKKSQGLWSDYSDNLKYDHTTACTQQDSLSCPWECETKGESQNTDLSPKPLISEQTVILGKTPLGRIDQENNETKQSFCLSPNSVDHREVQVLSQSMPLTPHQAVPSGERPYMCVECGKCFGRSSHLLQHQRIHTGEKPYVCSVCGKAFSQSSVLSKHRRIHTGEKPYECNECGKAFRVSSDLAQHHKIHTGEKPHECLECRKAFTQLSHLIQHQRIHTGERPYVCPLCGKAFNHSTVLRSHQRVHTGEKPHRCNECGKTFSVKRTLLQHQRIHTGEKPYTCSECGKAFSDRSVLIQHHNVHTGEKPYECSECGKTFSHRSTLMNHERIHTEEKPYACYECGKAFVQHSHLIQHQRVHTGEKPYVCGECGHAFSARRSLIQHERIHTGEKPFQCTECGKAFSLKATLIVHLRTHTGEKPYECNSCGKAFSQYSVLIQHQRIHTGEKPYECGECGRAFNQHGHLIQHQKVHRKL

Each molecule was assayed on HEK293FT cells transfected with TF library (assay: Screening of TF condensates based on fluorescent puncta). Conditions: Figure 1B numerical data; TF library screen, one value per transcriptional factor.
Type: cell-based
Outline: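 TF plasmids (final 1.6 μg/ml) reverse-transfected with PEI (4.8 μg/ml) into HEK293FT cells; after 60 h, cells cultured ±glucose for 12 h, fixed in 4% PFA and immunostained for Flag or GAL4 tags with Alexa 488 secondaries. Puncta scored by automated imaging of 50 random fields per well.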

Molecule | Z score of condensed fraction
B1 | -1.019
B2 | -0.7375
B3 | -0.3091
B4 | 0.9842
B5 | 2.409
B6 | 0.7106
B7 | -0.9036
B8 | 2.822
B9 | -0.9415
B10 | -0.4697
B11 | -1.178
